[ ]: non-standard residue; d: D form. NMeK = CN[C@@H](CCCCN)C(=O)O

Our source for the IC50 values is US20200087347 (published 2020).

Common to all, as to test: competition
One experiment addresses integrin α5β1 (human, UniProt P08648).
The target of a further experiment is integrin αIIbβ3 (human, UniProt P08514).
The target of another experiment is T1, integrin αvβ8 (human, UniProt P06756).
T1 chain 1: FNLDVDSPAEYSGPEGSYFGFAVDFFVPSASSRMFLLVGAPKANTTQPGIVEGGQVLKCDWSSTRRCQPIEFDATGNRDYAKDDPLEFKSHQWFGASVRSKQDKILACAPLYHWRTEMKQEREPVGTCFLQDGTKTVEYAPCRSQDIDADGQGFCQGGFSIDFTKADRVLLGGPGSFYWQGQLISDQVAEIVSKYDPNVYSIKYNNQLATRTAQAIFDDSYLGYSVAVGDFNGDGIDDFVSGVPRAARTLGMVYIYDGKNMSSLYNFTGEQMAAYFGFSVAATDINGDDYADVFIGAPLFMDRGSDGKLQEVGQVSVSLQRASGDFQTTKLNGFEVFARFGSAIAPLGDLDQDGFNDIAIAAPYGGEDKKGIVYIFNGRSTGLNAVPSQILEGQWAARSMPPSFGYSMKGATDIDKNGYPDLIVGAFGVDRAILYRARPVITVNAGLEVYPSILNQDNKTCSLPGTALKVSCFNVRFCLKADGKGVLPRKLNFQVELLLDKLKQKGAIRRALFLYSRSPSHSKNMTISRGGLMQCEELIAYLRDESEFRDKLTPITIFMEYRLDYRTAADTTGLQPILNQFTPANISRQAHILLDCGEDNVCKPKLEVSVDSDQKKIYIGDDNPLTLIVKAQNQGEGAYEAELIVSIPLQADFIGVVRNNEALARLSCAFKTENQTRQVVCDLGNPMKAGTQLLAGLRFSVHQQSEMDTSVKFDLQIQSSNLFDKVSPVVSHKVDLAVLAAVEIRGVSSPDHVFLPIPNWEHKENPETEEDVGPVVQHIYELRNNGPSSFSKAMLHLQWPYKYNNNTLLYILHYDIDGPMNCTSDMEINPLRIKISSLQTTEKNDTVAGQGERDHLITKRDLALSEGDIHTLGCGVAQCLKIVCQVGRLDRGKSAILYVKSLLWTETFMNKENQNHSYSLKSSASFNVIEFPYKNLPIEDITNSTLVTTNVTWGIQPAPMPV
T1 chain 2: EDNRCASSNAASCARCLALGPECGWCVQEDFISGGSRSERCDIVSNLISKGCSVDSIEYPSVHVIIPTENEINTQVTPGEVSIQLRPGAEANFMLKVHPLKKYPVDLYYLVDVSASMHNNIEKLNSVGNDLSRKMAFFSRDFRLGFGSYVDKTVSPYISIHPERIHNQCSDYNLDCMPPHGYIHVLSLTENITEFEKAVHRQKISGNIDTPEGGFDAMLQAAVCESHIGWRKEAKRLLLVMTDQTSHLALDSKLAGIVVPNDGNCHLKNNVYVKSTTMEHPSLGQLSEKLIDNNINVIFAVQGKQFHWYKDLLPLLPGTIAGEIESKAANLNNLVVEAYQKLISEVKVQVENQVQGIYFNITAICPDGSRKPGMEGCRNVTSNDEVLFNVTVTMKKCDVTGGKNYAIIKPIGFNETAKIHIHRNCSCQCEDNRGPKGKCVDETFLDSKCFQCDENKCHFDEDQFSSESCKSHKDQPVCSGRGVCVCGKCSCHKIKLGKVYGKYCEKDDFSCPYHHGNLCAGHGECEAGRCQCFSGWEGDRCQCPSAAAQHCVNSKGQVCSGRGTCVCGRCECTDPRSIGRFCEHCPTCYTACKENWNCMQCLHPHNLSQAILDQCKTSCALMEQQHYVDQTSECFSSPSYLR

The next experiment concerns the target T2, integrin αvβ3 (human, UniProt P06756).
T2 chain 1: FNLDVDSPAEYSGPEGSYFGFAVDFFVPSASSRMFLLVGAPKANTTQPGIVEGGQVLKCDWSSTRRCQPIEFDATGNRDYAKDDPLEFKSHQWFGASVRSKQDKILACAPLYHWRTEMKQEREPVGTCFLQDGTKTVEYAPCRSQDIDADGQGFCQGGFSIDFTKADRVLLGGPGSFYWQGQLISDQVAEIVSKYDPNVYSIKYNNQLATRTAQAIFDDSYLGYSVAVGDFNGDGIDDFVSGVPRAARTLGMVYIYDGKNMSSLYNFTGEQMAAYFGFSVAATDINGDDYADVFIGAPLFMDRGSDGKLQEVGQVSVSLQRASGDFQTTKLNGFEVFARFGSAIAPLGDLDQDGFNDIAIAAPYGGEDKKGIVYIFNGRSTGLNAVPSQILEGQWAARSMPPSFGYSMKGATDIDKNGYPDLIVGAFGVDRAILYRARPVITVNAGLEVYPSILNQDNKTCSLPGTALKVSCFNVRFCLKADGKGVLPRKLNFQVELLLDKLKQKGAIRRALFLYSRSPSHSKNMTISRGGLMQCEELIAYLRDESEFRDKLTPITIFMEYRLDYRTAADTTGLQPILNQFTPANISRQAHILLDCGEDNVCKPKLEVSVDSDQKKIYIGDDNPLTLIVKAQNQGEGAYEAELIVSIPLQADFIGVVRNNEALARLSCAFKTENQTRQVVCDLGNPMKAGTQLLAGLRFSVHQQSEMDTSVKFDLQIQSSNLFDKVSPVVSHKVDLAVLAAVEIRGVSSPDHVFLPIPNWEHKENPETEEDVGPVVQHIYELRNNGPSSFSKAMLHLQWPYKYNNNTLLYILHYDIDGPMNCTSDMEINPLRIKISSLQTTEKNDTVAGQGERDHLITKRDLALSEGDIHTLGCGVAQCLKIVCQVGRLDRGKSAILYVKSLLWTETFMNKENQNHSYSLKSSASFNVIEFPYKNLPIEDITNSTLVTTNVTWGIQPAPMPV
T2 chain 2: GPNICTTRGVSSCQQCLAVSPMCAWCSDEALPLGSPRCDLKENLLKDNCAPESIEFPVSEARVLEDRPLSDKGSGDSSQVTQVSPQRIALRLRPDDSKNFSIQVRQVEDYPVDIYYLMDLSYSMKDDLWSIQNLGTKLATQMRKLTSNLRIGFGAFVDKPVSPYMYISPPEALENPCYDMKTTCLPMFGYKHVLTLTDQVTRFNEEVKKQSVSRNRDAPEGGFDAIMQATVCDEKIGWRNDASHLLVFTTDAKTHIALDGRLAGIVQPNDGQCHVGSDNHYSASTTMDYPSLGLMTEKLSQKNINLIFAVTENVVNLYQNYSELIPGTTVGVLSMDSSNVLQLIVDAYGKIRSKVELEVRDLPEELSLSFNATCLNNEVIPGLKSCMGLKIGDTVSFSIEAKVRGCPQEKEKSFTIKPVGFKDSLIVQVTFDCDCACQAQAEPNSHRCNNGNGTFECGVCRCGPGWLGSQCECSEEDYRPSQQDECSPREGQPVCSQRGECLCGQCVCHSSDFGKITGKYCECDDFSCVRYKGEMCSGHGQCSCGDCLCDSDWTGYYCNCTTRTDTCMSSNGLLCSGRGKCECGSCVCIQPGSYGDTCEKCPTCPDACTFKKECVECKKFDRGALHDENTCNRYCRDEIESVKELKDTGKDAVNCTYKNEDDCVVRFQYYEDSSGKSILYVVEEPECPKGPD

Another experiment deals with T3, integrin αvβ6 (human, UniProt P06756).
T3 chain 1: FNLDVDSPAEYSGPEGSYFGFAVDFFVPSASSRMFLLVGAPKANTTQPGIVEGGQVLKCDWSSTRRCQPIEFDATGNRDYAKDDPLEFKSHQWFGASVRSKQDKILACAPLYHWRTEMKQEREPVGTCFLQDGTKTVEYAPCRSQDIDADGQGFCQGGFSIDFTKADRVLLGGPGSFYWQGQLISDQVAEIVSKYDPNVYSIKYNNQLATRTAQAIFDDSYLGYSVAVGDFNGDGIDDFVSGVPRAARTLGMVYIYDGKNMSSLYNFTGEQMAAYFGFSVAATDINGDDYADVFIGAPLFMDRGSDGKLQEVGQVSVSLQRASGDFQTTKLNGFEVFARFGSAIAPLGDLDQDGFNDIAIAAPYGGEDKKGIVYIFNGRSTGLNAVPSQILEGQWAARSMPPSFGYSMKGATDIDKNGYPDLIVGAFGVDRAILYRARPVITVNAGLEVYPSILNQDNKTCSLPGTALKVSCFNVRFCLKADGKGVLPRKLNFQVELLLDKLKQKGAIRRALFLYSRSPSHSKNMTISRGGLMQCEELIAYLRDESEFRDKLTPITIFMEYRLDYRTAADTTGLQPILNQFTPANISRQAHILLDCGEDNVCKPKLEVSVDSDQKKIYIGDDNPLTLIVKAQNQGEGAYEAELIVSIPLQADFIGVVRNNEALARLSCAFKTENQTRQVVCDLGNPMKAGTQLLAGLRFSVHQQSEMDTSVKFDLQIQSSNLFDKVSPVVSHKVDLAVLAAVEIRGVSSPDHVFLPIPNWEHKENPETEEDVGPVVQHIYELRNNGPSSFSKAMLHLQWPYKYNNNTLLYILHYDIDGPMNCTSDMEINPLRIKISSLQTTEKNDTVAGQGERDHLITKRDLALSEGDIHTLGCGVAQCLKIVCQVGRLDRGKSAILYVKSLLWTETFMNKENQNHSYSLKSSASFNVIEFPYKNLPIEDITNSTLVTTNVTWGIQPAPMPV
T3 chain 2: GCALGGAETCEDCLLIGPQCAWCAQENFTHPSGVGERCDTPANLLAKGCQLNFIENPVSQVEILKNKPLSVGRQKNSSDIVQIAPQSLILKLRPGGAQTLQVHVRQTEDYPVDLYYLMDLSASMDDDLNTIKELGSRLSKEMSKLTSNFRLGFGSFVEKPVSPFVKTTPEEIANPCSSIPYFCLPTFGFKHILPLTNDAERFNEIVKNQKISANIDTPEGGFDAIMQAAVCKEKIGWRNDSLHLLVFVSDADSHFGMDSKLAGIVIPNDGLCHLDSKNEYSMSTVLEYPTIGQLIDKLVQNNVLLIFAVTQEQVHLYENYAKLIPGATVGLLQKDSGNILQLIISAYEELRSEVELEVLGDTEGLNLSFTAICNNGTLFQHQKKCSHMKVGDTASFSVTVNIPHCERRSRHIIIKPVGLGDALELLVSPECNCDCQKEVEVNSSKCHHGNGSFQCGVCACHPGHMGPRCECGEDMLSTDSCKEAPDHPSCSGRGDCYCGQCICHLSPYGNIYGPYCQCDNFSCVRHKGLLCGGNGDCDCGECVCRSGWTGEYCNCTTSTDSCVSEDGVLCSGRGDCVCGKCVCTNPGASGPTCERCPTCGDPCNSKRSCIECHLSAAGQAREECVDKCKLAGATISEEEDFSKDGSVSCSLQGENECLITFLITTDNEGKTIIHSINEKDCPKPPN

Another experiment concerns the target T4, integrin αvβ5 (human, UniProt P06756).
T4 chain 1: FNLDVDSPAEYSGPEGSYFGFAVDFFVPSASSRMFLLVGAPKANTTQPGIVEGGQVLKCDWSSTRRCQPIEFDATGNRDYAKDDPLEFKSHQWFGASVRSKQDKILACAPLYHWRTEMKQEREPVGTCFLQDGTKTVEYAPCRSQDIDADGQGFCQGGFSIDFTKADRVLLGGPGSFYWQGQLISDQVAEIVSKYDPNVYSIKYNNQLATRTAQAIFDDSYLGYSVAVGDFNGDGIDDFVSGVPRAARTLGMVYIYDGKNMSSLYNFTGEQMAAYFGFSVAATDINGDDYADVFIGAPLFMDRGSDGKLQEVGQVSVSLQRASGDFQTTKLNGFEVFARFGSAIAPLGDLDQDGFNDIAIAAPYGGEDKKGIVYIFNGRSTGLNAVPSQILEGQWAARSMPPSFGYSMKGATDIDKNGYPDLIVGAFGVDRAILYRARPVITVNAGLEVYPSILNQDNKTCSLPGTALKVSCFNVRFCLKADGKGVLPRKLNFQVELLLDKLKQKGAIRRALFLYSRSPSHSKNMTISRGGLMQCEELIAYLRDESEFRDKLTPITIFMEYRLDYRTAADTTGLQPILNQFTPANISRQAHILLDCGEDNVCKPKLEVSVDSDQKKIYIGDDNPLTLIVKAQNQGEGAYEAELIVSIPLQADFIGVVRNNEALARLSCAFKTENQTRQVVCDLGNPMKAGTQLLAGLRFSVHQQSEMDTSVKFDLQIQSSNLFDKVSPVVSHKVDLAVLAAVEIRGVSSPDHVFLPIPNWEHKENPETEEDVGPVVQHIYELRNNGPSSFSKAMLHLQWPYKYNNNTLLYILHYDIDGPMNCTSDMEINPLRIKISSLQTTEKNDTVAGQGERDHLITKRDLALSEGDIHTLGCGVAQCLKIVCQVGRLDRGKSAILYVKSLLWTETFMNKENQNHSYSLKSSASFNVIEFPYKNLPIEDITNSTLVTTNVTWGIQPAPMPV
T4 chain 2: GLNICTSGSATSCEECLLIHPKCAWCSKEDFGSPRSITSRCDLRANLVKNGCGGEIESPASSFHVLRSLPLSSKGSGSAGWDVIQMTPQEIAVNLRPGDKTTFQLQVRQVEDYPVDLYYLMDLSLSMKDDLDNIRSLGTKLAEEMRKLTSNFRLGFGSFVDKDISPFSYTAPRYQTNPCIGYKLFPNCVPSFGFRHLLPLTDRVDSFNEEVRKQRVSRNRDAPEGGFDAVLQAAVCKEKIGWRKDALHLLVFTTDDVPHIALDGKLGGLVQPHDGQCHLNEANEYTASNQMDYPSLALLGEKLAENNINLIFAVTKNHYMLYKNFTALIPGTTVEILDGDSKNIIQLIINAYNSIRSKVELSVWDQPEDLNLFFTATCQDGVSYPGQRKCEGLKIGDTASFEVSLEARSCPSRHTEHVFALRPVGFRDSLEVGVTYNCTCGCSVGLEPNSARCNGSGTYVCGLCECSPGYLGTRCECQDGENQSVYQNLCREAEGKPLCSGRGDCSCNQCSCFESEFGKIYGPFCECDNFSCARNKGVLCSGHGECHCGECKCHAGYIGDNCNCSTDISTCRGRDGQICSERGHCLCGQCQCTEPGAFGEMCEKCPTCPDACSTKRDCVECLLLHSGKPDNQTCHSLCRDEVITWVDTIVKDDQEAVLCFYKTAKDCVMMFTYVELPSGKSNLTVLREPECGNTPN

Sequence of integrin α5β1 (P08648 42-1049, chain 1 of 2): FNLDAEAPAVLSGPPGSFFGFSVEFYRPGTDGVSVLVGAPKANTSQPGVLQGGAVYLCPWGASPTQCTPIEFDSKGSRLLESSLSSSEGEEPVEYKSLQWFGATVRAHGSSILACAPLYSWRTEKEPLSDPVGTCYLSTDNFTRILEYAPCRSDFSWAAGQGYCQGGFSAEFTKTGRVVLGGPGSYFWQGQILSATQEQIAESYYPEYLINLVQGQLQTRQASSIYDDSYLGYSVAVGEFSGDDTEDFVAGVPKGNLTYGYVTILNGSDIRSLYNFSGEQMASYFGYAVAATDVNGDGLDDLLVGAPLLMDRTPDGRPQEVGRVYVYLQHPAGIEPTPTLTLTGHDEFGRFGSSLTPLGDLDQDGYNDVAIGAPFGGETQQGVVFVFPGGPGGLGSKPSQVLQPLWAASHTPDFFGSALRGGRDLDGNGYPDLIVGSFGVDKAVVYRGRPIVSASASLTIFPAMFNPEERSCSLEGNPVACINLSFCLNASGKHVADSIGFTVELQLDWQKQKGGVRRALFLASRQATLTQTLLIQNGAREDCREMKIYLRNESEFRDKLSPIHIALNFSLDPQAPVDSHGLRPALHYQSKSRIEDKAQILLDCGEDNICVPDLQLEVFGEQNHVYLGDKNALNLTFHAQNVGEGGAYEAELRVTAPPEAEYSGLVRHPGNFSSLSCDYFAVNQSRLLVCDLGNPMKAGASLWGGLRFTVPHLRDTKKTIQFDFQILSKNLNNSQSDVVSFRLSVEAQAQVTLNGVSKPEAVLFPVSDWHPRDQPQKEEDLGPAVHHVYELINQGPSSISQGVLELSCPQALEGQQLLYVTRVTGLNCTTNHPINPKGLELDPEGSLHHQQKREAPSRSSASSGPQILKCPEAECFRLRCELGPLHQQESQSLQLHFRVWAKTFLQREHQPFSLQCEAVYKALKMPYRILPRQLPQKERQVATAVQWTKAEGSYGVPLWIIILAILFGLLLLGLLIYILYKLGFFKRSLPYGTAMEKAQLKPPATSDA
Sequence of integrin α5β1 (chain, as listed by the source, chain 2 of 2): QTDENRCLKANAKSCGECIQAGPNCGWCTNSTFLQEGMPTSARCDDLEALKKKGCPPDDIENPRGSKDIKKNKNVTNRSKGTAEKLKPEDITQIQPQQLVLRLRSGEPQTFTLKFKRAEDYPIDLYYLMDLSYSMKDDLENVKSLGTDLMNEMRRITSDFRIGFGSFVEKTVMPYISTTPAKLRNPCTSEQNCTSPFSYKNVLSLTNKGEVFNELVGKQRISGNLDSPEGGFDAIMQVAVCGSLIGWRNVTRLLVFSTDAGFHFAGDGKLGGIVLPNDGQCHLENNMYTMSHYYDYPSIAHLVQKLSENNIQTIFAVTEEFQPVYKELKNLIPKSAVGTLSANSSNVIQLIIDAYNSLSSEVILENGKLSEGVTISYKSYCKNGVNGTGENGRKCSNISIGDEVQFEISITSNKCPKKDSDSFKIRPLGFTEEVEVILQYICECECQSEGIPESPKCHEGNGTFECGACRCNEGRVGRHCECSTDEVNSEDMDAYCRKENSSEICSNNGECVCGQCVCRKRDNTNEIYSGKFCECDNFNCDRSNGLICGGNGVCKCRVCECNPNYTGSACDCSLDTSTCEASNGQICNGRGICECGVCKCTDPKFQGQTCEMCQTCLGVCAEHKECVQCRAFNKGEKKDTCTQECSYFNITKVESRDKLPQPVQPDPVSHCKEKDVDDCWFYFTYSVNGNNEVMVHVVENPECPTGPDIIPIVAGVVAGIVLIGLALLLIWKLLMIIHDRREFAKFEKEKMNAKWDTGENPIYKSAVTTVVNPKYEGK

B1: Compound 8 (peptide)
chain: cyclo(RGDL[dP][NMeK]GL)
SMILES: CC(C)C[C@@H]1NC(=O)CNC(=O)[C@H](CCCCN)N(C)C(=O)[C@H]2CCCN2C(=O)[C@H](CC(C)C)NC(=O)[C@H](CC(=O)O)NC(=O)CNC(=O)[C@H](CCCNC(=N)N)NC1=O
A word on the IC50: it is the concentration at which inhibition is half-maximal. Low values mean higher potency, high ones lower potency. For B1, the IC50 with integrin α5β1 is more than 1000 nM; with integrin αIIbβ3 it was more than 1000 nM; in the experiment with integrin αvβ8, 6.5 nM; in the experiment with integrin αvβ3, more than 1000 nM; with integrin αvβ6, 201 nM; with integrin αvβ5 it was more than 1000 nM.
